# According to US6518063, “Osf2/Cbfa1 nucleic acids and methods of use therefor” (Board of Regents, The University of Texas System):
# B1: Osteocalcin (OG2) OSE2 (dsDNA)
# DNA 1: AGCTGCAATCACCAACCACAGCA
# DNA 2: TGCTGTGGTTGGTGATTGCAGCT
# B2: Osteopontin OSE2 (dsDNA)
# DNA 1: CGCTCTTTGTGCAAACCACACAG
# DNA 2: CTGTGTGGTTTGCACAAAGAGCG
# Assays:
# [1] = molecular target: delta.runt.PST + Cbfb heterodimer (UniProt Q08775;Q08024 Q08775:188-607,Q08024:1-187); test: EMSA; supershifted heterodimer complex; details: tags: 6xHis (pTrcHis); chain copies: 2 (1:1 heterodimer, inferred); label: 32P
# Chain of delta.runt.PST + Cbfb heterodimer (Q08775 188-607, stated change not applied, chain 1 of 2): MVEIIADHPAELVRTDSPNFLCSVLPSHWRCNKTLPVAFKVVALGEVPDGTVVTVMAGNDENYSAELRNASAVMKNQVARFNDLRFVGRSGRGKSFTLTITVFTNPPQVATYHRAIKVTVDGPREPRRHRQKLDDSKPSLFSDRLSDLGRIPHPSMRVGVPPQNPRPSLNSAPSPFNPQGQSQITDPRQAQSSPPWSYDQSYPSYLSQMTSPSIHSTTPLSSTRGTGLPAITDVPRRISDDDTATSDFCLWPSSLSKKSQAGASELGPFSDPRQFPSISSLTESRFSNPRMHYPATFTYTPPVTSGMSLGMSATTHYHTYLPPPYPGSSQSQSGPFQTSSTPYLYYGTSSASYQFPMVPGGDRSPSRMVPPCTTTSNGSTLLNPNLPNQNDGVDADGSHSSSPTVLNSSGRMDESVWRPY
# Chain of delta.runt.PST + Cbfb heterodimer (Q08024 whole entry, stated change not applied, chain 2 of 2, the tested form may be a part): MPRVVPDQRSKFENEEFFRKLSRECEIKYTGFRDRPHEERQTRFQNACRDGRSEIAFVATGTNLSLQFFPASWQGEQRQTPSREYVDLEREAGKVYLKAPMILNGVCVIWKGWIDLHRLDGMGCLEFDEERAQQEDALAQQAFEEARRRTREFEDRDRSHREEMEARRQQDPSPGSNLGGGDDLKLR
# From the text: FIG. 18A. The QA domain prevents heterodimerization of Osf2 with Cbfβ. EMSA done with labeled double-stranded OSE2 oligonucleotide, and equivalent amounts of the Histidine-tagged wild-type and mutant proteins, in the presence or absence of Cbfβ. The nonspecific band (NS) is indicated by an arrow. Arrowheads indicate the supershifted complexes seen in lanes 4 and 10.
# (§1) 5.6.1.3 Generation of Recombinant Fusion Proteins, DNA-binding Assays, and In Vitro Binding Assays For protein production, bacterial cells were induced with 2 mM IPTG, and the fusion proteins were enriched using Ni-NTA agarose resin (Qiagen Chatsworth, Calif.) as per the manufacturer's guidelines. DNA-binding assays were performed with 5 fmol of ^32P-labeled double-stranded OSE2 oligonucleotides, in a buffer containing 20 mM Tris-HCl, pH 8.0, 10 mM NaCl, 3 mM EGTA, 0.05% NP-40, 5 mM DTT, and 2 μg of poly (dI.dC).poly (dI.dC), with equivalent amounts of wild type or mutant proteins. […] The proteins were checked for purity and quantified before use. ^35S-labeled Osf2 and Cbfa2 were synthesized in rabbit reticulocyte lysate using coupled in vitro transcription and translation (TNT kit, Promega). Typically, 100 ng of fusion protein bound to glutathione-agarose beads was used for each assay, while the amount of labeled protein in the assay was determined using fluorography. […]
# OSF2/CBFA1a = OSF2/CBFA1a (Homo sapiens, UniProt Q13950 SEQ:1-521); test: cell_activity; p6OSE2-luc, F9 cells; details: tags: pCMV expression
# Chain of OSF2/CBFA1a (Q13950 whole entry P266H/R267G): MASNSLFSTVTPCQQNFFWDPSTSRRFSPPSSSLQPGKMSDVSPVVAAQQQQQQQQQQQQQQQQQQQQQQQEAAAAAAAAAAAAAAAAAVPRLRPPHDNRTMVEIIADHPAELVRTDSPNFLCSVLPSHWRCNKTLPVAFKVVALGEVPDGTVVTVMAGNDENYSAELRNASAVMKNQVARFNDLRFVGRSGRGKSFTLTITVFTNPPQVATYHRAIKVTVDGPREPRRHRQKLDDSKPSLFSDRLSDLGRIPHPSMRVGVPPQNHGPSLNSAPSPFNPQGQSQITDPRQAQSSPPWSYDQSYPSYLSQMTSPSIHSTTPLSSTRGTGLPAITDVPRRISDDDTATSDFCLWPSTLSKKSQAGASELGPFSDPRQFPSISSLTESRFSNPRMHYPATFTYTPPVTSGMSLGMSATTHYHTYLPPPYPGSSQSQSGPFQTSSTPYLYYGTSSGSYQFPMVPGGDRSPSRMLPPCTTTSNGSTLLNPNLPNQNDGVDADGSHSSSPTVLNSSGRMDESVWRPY
# Procedure: FIG. 8B. F9 mouse teratocarcinoma cells were transiently transfected with 5 μg of the reporter plasmid in presence of 5 μg of the indicated expression vector. Values are expressed relative to the basal activity of p6OSE2-luc which was set at 1. Data represent results from 3 independent transfection studies.
# The mouse F9 teratocarcinoma cell line was used for the DNA transfection studies. The cells were plated on 10-cm dishes at a density of 5×10^5 cells/dish. Cells were transfected by the calcium phosphate coprecipitation method (Chen and Okayama, 1987), using 5 μg of reporter plasmid, 5 μg of expression plasmid and 2 μg of pRSV/βGal as previously described (Geoffroy et al., 1995). The p6OSE2-luc plasmid containing six copies of the wild-type OSE2 oligonucleotide in front of the −34/+13 mOG2 promoter-luciferase (luc) was used as reporter plasmid (Ducy and Karsenty, 1995). The pCMV-hOSF2/CBFA1a and pCMV-hOSF2/CBFA1b were used as expression plasmids. They contain respectively the full length hOSF2/CBFA1a cDNA and the hOSF2/CBFA1b cDNA lacking exon 8 in correct orientation downstream from the CMV promoter. Luciferase and β-galactosidase activities were assayed as previously described (Geoffroy et at, 1995). […]
# [2] = molecular target: His-Cbfa2 + His-Cbfb heterodimer (UniProt Q03347;Q08024 Q03347:1-451,Q08024:1-187); test: EMSA; slower heterodimer complex; details: tags: 6xHis on each (pTrcHis); chain copies: 2 (1:1 heterodimer, inferred); label: 32P
# Chain of His-Cbfa2 + His-Cbfb heterodimer (Q03347 whole entry, chain 1 of 2): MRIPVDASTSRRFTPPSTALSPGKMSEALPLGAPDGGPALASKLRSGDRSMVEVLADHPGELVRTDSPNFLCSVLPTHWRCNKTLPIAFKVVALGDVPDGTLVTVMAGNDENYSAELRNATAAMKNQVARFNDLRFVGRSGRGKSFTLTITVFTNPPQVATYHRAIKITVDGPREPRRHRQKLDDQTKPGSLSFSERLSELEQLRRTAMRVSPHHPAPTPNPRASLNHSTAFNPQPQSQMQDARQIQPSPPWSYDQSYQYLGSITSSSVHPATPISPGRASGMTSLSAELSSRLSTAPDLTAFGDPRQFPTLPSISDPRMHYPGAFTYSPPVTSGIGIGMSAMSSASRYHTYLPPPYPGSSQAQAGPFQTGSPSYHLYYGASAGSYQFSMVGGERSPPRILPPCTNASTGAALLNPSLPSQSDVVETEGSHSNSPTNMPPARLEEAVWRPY
# Chain of His-Cbfa2 + His-Cbfb heterodimer (Q08024 whole entry, chain 2 of 2): as the sequence (Q08024 whole entry, stated change not applied, chain 2 of 2, the tested form may be a part) above
# Procedure: as §1
# (§2) Since Cbfβ is also expressed in osteoblasts, the inventors tested if Cbfβ was also a partner for Osf2 using an electrophoretic mobility shift assay (EMSA). […] In contrast, when using His-Cbfa2 protein as a positive control, the inventors always detected heterodimerization with Cbfβ, resulting in a protein-DNA complex of slower mobility (FIG. 18A, compare lanes 3 and 4). […]
# Osf2/Cbfa1 [3] = molecular target: T1, Osf2/Cbfa1 (Mus musculus, UniProt Q08775 SEQ:1-528); test: cell_activity; p6OSE2-luc (6 copies), F9 cells; details: tags: pCMV5 expression
# T1 sequence (Q08775 80-607): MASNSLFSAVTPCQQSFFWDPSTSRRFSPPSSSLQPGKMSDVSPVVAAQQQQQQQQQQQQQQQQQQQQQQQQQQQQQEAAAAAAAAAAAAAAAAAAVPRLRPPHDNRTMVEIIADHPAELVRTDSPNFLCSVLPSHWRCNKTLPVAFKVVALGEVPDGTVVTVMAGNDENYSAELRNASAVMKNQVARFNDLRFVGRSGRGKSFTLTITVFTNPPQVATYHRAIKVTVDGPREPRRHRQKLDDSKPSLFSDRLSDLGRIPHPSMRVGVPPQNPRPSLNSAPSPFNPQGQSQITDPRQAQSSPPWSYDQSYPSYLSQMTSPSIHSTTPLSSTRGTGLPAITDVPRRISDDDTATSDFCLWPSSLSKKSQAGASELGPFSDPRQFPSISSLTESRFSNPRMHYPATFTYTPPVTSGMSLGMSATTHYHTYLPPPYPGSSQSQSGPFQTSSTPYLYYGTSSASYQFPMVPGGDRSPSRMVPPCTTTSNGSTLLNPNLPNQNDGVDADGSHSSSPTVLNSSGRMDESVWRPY
# Procedure: After transfection the cells were washed twice with PBS (150 mM NaCl, 10 mM sodium phosphate [pH 7.2]), and regular medium was added for 24 h. Cells were harvested and lysed by three cycles of freeze-thawing. β-galactosidase activities present in each lysate, measured by a colorimetric enzyme assay (Ausubel et al., 1997) using resorufin β-D-galactopyranoside (Boehringer Mannheim) as a substrate, were used to normalize the transfection efficiency between different studies. DNA cotransfections (Ausubel et al., 1997) were performed in duplicates and repeated at least four times with quantitatively and qualitatively similar results. Luciferase activities were assayed using a Monolight 2010 luminometer (Analytical Luminescence Laboratory, San Diego, Calif.) and D-luciferin substrate (Analytical Luminescence Laboratory) in 100 mM Tris-HCl [pH 7.8], 5 mM ATP, 15 mM MgSO_4, 1 mM dithiothreitol (DTT). For overexpression studies, expression plasmids were transfected for 4 h with Lipofectamin (GIBCO) following the manufacturer's instructions. RNA were harvested 40 h after transfection. […]
# The transcriptional activity of Osf2/Cbfa1 was assessed by DNA cotransfection studies. […]
# His-Cbfa2 = His-Cbfa2 (Mus musculus, UniProt Q03347 SEQ:1-451); test: EMSA; details: tags: 6xHis (pTrcHis); label: 32P
# Chain of His-Cbfa2 (Q03347 whole entry): as the sequence (Q03347 whole entry, chain 1 of 2) above
# Procedure: as §1, §2
# Osf2/Cbfa1 [4] = molecular target: T1, Osf2/Cbfa1; test: cell_activity; p910-Opn-luc promoter fragment, F9 cells; deletion of element abolished; details: tags: pCMV5 expression
Binder,binding result [1],activity (OSF2/CBFA1a) [fold activation],binding result [2],activity (Osf2/Cbfa1 [3]) [fold activation],binding result (His-Cbfa2),activity (Osf2/Cbfa1 [4]) [fold activation]
B1,binds,75,binds,> 70,binds,–
B2,–,–,–,–,–,4
